This note sets out measurements from US20230167165A1.

The target of this assay is monomeric human protein of therapeutic interest (antigen of Examples 1-7) (human). Put plainly: competition flow cytometry; control scFv-Fc supernatant preincubated 15 min with 10 nM labeled antigen, then yeast displaying parental scFv added. On the technique in general: In flow cytometry, cells or beads pass a laser one at a time.

Consider unrelated scFv-Fc (control) (Fc fusion), for which the Q2 (% of cells displaying the parental scFv that bind antigen in presence of the competing scFv-Fc) was 69.9%.
